This is an account of results in patent US20180319847A1.

Assay [1] has as its target EphB2-Fc. Put plainly: SPR, EphB2-Fc immobilised on CM5, 100 nM analyte.
Assay [2] addresses EphB2-Fc. Put plainly: SPR competition on immobilised EphB2-Fc; competitor ephrinB2-Fc (246 nM) preincubated with 0-1020 nM GST-Azu 88-113.
The target of assay [3] is EphB2-Fc. Put plainly: SPR competition on immobilised EphB2-Fc; competitor ephrinB2-Fc (246 nM), 0-1020 nM GST-Azu 88-113.
Chain of EphB2-Fc (P54763 19-543): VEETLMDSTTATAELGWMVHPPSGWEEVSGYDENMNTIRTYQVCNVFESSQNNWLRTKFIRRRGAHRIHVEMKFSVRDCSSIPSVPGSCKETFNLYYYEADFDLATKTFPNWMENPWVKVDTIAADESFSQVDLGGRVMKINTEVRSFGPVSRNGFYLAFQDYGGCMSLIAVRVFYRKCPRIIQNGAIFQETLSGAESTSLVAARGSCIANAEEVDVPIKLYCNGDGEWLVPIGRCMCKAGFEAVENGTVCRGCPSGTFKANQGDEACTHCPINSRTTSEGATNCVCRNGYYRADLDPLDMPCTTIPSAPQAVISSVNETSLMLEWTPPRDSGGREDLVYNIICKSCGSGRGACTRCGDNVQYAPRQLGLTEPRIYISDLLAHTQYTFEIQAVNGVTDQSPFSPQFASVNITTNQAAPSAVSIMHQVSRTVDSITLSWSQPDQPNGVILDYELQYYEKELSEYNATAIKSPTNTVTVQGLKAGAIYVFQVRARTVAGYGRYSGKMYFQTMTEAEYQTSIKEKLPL

Chain of GST-Azu 88-113 (chain): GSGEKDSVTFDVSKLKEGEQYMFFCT
Chain of GST-Azu 36-89 (B3EWN9 36-89): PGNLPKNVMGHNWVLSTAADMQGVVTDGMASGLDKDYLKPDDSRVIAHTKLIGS

In the assay with EphB2-Fc [1], “GST-Azu 36-89 (from UniProt B3EWN9 36-89)” registered a Req in RU of 57 RU. GST-Azu 88-113 showed a reduction of total protein binding to the surface in the assay with EphB2-Fc [2] of less than 60%. Moreover, the level at which the inhibition levels off with EphB2-Fc [3] is 40 to 50%.
